# According to US20200199241A1 (Chugai, published 2020):
# Molecular target: T1, human FcRn (soluble human FcRn complexed with β2-microglobulin) (human, UniProt P61769 21-119, limits assumed)
# T1 construct: also called hFcRn
# Experiment: SPR, pH 7.0;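 also: antibodies captured on a Protein L sensor chip with human FcRn injected as analyte, KD calculated from fitted association and dissociation rate constants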
row,Binder,Kd
1,"IgG1-F475 (antibody, EU numbering; copies: 2 + 2) heavy: QVQLQESGPGLVKPSETLSLTCAVSGHSISHDHAWSWVRQPPGEGLEWIGFISYSGITNYNPSLQGRVTISRDNSKNTLYLQMNSLRAEDTAVYYCARSLARTTAMDYWGEGTLVTVSSASTKGPSVFPLAPSSKSTSGGTAALGCLVKDYFPEPVTVSWNSGALTSGVHTFPAVLQSSGLYSLSSVVTVPSSSLGTQTYICNVNHKPSNTKVDKKVEPKSCDKTHTCPPCPAPELLGGPSVFLFPPKPKDTLMISREVEVTCVVVDVSHEDPEVKFNWYVDGVEVHNAKTKPREEQYNSTYRVVSVLQVLHQDWLNGKEYKCKVSNKALPAPIEKTISKAKGQPREPQVYTLPPSRDELTKNQVSLTCLVKGFYPSDIAVEWESNGQPENNYKTTPPVLDSDGSFFLYSKLTVDKSRWQQGNVFSCSVLHEALHYHYTQKSLSLSP light: not shown",43 nM
2,"IgG1-F480 (antibody, EU numbering; copies: 2 + 2) heavy: QVQLQESGPGLVKPSETLSLTCAVSGHSISHDHAWSWVRQPPGEGLEWIGFISYSGITNYNPSLQGRVTISRDNSKNTLYLQMNSLRAEDTAVYYCARSLARTTAMDYWGEGTLVTVSSASTKGPSVFPLAPSSKSTSGGTAALGCLVKDYFPEPVTVSWNSGALTSGVHTFPAVLQSSGLYSLSSVVTVPSSSLGTQTYICNVNHKPSNTKVDKKVEPKSCDKTHTCPPCPAPELLGGPSVFLFPPKPKDTLMISRTLEVTCVVVDVSHEDPEVKFNWYVDGVEVHNAKTKPREEQYNSTYRVVSVLTPLHQDWLNGKEYKCKVSNKALPAPIEKTISKAKGQPREPQVYTLPPSRDELTKNQVSLTCLVKGFYPSDIAVEWESNGQPENNYKTTPPVLDSDGSFFLYSKLTVDKSRWQQGNVFSCSVMHEALHYHYTQKSLSLSP light: not shown",39 nM
3,"IgG1-F476 (antibody, EU numbering; copies: 2 + 2) heavy: QVQLQESGPGLVKPSETLSLTCAVSGHSISHDHAWSWVRQPPGEGLEWIGFISYSGITNYNPSLQGRVTISRDNSKNTLYLQMNSLRAEDTAVYYCARSLARTTAMDYWGEGTLVTVSSASTKGPSVFPLAPSSKSTSGGTAALGCLVKDYFPEPVTVSWNSGALTSGVHTFPAVLQSSGLYSLSSVVTVPSSSLGTQTYICNVNHKPSNTKVDKKVEPKSCDKTHTCPPCPAPELLGGPSVFLFPPKPKDTLMISRTVEVTCVVVDVSHEDPEVKFNWYVDGVEVHNAKTKPREEQYNSTYRVVSVLQVLHQDWLNGKEYKCKVSNKALPAPIEKTISKAKGQPREPQVYTLPPSRDELTKNQVSLTCLVKGFYPSDIAVEWASNGQPENNYKTTPPVLDSDGSFFLYSKLTVDKSRWQQGNVFSCSVLHEALHYHYTQKSLSLSP light: not shown",55 nM
4,"IgG1-F477 (antibody, EU numbering; copies: 2 + 2) heavy: QVQLQESGPGLVKPSETLSLTCAVSGHSISHDHAWSWVRQPPGEGLEWIGFISYSGITNYNPSLQGRVTISRDNSKNTLYLQMNSLRAEDTAVYYCARSLARTTAMDYWGEGTLVTVSSASTKGPSVFPLAPSSKSTSGGTAALGCLVKDYFPEPVTVSWNSGALTSGVHTFPAVLQSSGLYSLSSVVTVPSSSLGTQTYICNVNHKPSNTKVDKKVEPKSCDKTHTCPPCPAPELLGGPSVFLFPPKPKDTLMISRTVEVTCVVVDVSHEDPEVKFNWYVDGVEVHNAKTKPREEQYNSTYRVVSVLQVLHQDWLNGKEYKCKVSNKALPAPIEKTISKAKGQPREPQVYTLPPSRDELTKNQVSLTCLVKGFYPSDIAVEWESNGQEENNYKTTPPVLDSDGSFFLYSKLTVDKSRWQQGNVFSCSVLHEALHYHYTQKSLSLSP light: not shown",43 nM
5,"IgG1-F481 (antibody, EU numbering; copies: 2 + 2) heavy: QVQLQESGPGLVKPSETLSLTCAVSGHSISHDHAWSWVRQPPGEGLEWIGFISYSGITNYNPSLQGRVTISRDNSKNTLYLQMNSLRAEDTAVYYCARSLARTTAMDYWGEGTLVTVSSASTKGPSVFPLAPSSKSTSGGTAALGCLVKDYFPEPVTVSWNSGALTSGVHTFPAVLQSSGLYSLSSVVTVPSSSLGTQTYICNVNHKPSNTKVDKKVEPKSCDKTHTCPPCPAPELLGGPSVFLFPPKPKDTLMISRTTEVTCVVVDVSHEDPEVKFNWYVDGVEVHNAKTKPREEQYNSTYRVVSVLQVLHQDWLNGKEYKCKVSNKALPAPIEKTISKAKGQPREPQVYTLPPSRDELTKNQVSLTCLVKGFYPSDIAVEWESNGQPENNYKTTPPVLDSDGSFFLYSKLTVDKSRWQQGNVFSCSVMHEALHYHYTQKSLSLSP light: not shown",56 nM
6,"IgG1-F482 (antibody, EU numbering; copies: 2 + 2) heavy: QVQLQESGPGLVKPSETLSLTCAVSGHSISHDHAWSWVRQPPGEGLEWIGFISYSGITNYNPSLQGRVTISRDNSKNTLYLQMNSLRAEDTAVYYCARSLARTTAMDYWGEGTLVTVSSASTKGPSVFPLAPSSKSTSGGTAALGCLVKDYFPEPVTVSWNSGALTSGVHTFPAVLQSSGLYSLSSVVTVPSSSLGTQTYICNVNHKPSNTKVDKKVEPKSCDKTHTCPPCPAPELLGGPSVFLFPPKPKDTLMISRTVEVTCVVVDVSHEDPEVKFNWYVDGVEVHNAKTKPREEQYNSTYRVVSVLQVLHQDWLNGKEYKCKVSGKALPAPIEKTISKAKGQPREPQVYTLPPSRDELTKNQVSLTCLVKGFYPSDIAVEWESNGQPENNYKTTPPVLDSDGSFFLYSKLTVDKSRWQQGNVFSCSVMHEALHYHYTQKSLSLSP light: not shown",70 nM

# Other lines, results leading:
row,Kd,Binder
1,97 nM,"IgG1-F485 (antibody, EU numbering; copies: 2 + 2) heavy: QVQLQESGPGLVKPSETLSLTCAVSGHSISHDHAWSWVRQPPGEGLEWIGFISYSGITNYNPSLQGRVTISRDNSKNTLYLQMNSLRAEDTAVYYCARSLARTTAMDYWGEGTLVTVSSASTKGPSVFPLAPSSKSTSGGTAALGCLVKDYFPEPVTVSWNSGALTSGVHTFPAVLQSSGLYSLSSVVTVPSSSLGTQTYICNVNHKPSNTKVDKKVEPKSCDKTHTCPPCPAPELLGGPSVFLFPPKPKDTLMISRTVEVTCVVVDVSHEDPEVKFNWYVDGVEVHEAKTKPREEQYNSTYRVVSVLAVLHQDWLNGKEYKCKVSNKALPAPIEKTISKAKGQPREPQVYTLPPSRDELTKNQVSLTCLVKGFYPSDIAVEWESNGQPENNYKTTPPVLDSDGSFFLYSKLTVDKSRWQQGNVFSCSVMHEALHYHYTQKSLSLSP light: not shown"
2,75 nM,"IgG1-F490 (antibody, EU numbering; copies: 2 + 2) heavy: QVQLQESGPGLVKPSETLSLTCAVSGHSISHDHAWSWVRQPPGEGLEWIGFISYSGITNYNPSLQGRVTISRDNSKNTLYLQMNSLRAEDTAVYYCARSLARTTAMDYWGEGTLVTVSSASTKGPSVFPLAPSSKSTSGGTAALGCLVKDYFPEPVTVSWNSGALTSGVHTFPAVLQSSGLYSLSSVVTVPSSSLGTQTYICNVNHKPSNTKVDKKVEPKSCDKTHTCPPCPAPELLGGPKVFLFPPKPKDTLMISRTVEVTCVVVDVSHEDPEVKFNWYVDGVEVHNAKTKPREEQYNSTYRVVSVLTPLHHDWLNGKEYKCKVSNKALPAPIEKTISKAKGQPREPQVYTLPPSRDELTKNQVSLTCLVKGFYPSDIAVEWESNGQPENNYKTTPPVLDSDGSFFLYSKLTVDKSRWQQGNVFSCSVLHEALHYHYTQKSLSLSP light: not shown"
3,35 nM,"IgG1-F488 (antibody, EU numbering; copies: 2 + 2) heavy: QVQLQESGPGLVKPSETLSLTCAVSGHSISHDHAWSWVRQPPGEGLEWIGFISYSGITNYNPSLQGRVTISRDNSKNTLYLQMNSLRAEDTAVYYCARSLARTTAMDYWGEGTLVTVSSASTKGPSVFPLAPSSKSTSGGTAALGCLVKDYFPEPVTVSWNSGALTSGVHTFPAVLQSSGLYSLSSVVTVPSSSLGTQTYICNVNHKPSNTKVDKKVEPKSCDKTHTCPPCPAPELLGGPSVFLFPPKPKDTLMISRTVEVTCVVVDVSHEDPEVKFNWYVDGVEVHNAKTKPREEQYNSTYRVVSVLTPLHQDWLNGKEYKCKVSGKALPAPIEKTISKAKGQPREPQVYTLPPSRDELTKNQVSLTCLVKGFYPSDIAVEWESNGQPENNYKTTPPVLDSDGSFFLYSKLTVDKSRWQQGNVFSCSVLHEALHYHYTQKSLSLSP light: not shown"
4,340 nM,"IgG1-F486 (antibody, EU numbering; copies: 2 + 2) heavy: QVQLQESGPGLVKPSETLSLTCAVSGHSISHDHAWSWVRQPPGEGLEWIGFISYSGITNYNPSLQGRVTISRDNSKNTLYLQMNSLRAEDTAVYYCARSLARTTAMDYWGEGTLVTVSSASTKGPSVFPLAPSSKSTSGGTAALGCLVKDYFPEPVTVSWNSGALTSGVHTFPAVLQSSGLYSLSSVVTVPSSSLGTQTYICNVNHKPSNTKVDKKVEPKSCDKTHTCPPCPAPELLGGPSVFLFPPKPKDTLMISRTVEVTCVVVDVSHEDPEVKFNWYVDGVEVHNAKTKPREEQYNSTYRVVSVLQVRHHDWLNGKEYKCKVSNKALPAPIEKTISKAKGQPREPQVYTLPPSRDELTKNQVSLTCLVKGFYPSDIAVEWESNGQPENNYKTTPPVLDSDGSFFLYSKLTVDKSRWQQGNVFSCSVLHEALHYHYTQKSLSLSP light: not shown"
5,490 nM,"IgG1-F493 (antibody, EU numbering; copies: 2 + 2) heavy: QVQLQESGPGLVKPSETLSLTCAVSGHSISHDHAWSWVRQPPGEGLEWIGFISYSGITNYNPSLQGRVTISRDNSKNTLYLQMNSLRAEDTAVYYCARSLARTTAMDYWGEGTLVTVSSASTKGPSVFPLAPSSKSTSGGTAALGCLVKDYFPEPVTVSWNSGALTSGVHTFPAVLQSSGLYSLSSVVTVPSSSLGTQTYICNVNHKPSNTKVDKKVEPKSCDKTHTCPPCPAPELLGGPKVFLFPPKPKDTLMISRTPEVTCVVVDVSHEFPEVKFNWYVDGVEVHNAKTKPREEQYNSTYRVVSVLPVLHQDWLNGKEYKCKVSGKALPAPIEKTISKAKGQPREPQVYTLPPSRDELTKNQVSLTCLVKGFYPSDIAVEWESNGQPENNYKTTPPVLDSDGSFFLYSKLTVDKSRWQQGNVFSCSVYHEALHYHYTQKSLSLSP light: not shown"
6,57 nM,"IgG1-F483 (antibody, EU numbering; copies: 2 + 2) heavy: QVQLQESGPGLVKPSETLSLTCAVSGHSISHDHAWSWVRQPPGEGLEWIGFISYSGITNYNPSLQGRVTISRDNSKNTLYLQMNSLRAEDTAVYYCARSLARTTAMDYWGEGTLVTVSSASTKGPSVFPLAPSSKSTSGGTAALGCLVKDYFPEPVTVSWNSGALTSGVHTFPAVLQSSGLYSLSSVVTVPSSSLGTQTYICNVNHKPSNTKVDKKVEPKSCDKTHTCPPCPAPELLGGPSVFLFPPKPKDTLMISRTVEVTCVVVDVSHEDPEVKFNWYVDGVEVHNAKTKPREEQYNSTYRVVSVLQVLHADWLNGKEYKCKVSNKALPAPIEKTISKAKGQPREPQVYTLPPSRDELTKNQVSLTCLVKGFYPSDIAVEWESNGQPENNYKTTPPVLDSDGSFFLYSKLTVDKSRWQQGNVFSCSVMHEALHYHYTQKSLSLSP light: not shown"
7,62 nM,"IgG1-F484 (antibody, EU numbering; copies: 2 + 2) heavy: QVQLQESGPGLVKPSETLSLTCAVSGHSISHDHAWSWVRQPPGEGLEWIGFISYSGITNYNPSLQGRVTISRDNSKNTLYLQMNSLRAEDTAVYYCARSLARTTAMDYWGEGTLVTVSSASTKGPSVFPLAPSSKSTSGGTAALGCLVKDYFPEPVTVSWNSGALTSGVHTFPAVLQSSGLYSLSSVVTVPSSSLGTQTYICNVNHKPSNTKVDKKVEPKSCDKTHTCPPCPAPELLGGPSVFLFPPKPKDTLMISRTVEVTCVVVDVSHEDPEVKFNWYVDGVEVHNAKTKPREEQYNSTYRVVSALQVLHQDWLNGKEYKCKVSNKALPAPIEKTISKAKGQPREPQVYTLPPSRDELTKNQVSLTCLVKGFYPSDIAVEWESNGQPENNYKTTPPVLDSDGSFFLYSKLTVDKSRWQQGNVFSCSVMHEALHYHYTQKSLSLSP light: not shown"
